Assay results taken from US20210188971A1.

Assays:
[1] = target: L1-10_NLuc antigen (Strep-MBP-L1-10-Nluc) (human); experiment: luminescence ELISA, M22 directly coated, L1-10_NLuc titrated
[2] = target: L1-10_NLuc antigen (Strep-MBP-L1-10-Nluc) (human); experiment: competition ELISA, soluble M22 titrated with L1-10_NLuc at 1 µg/mL; competitor M22 coated on the plate
[3] = target: L1-10_NLuc antigen (Strep-MBP-L1-10-Nluc) (human); experiment: competition ELISA, soluble M22 titrated with L1-10_NLuc at 0.1 µg/mL; competitor M22 coated on the plate
[4] = target: L1-10_NLuc antigen (Strep-MBP-L1-10-Nluc) (human); experiment: competition ELISA, soluble M22 titrated with L1-10_NLuc at 0.2 µg/mL; competitor M22 coated on the plate

Q: Which results are given for “M22, unlabeled (thyroid-stimulating TSHR-specific monoclonal antibody)”?
A: RLU [1]: < 7e+06 RLU; IC50 [2]: 0.03 µg/mL; IC50 [3]: 0.008 µg/mL; IC50 [4]: 0.012 µg/mL
